Sequences and labels used below:
B1: scFv; the commonest letter at each place (parent)
chain 1: EVKLDETGGGLVQPGRPMKLSCVASGFTFSDYWMNWVRQSPEKGLEWVAQIRNKPYNYETYYSDSVKGRFTISRDDSKSSVYLQMNNLRVEDMGIYYCTGSYYGMDYWGQGTSVTVS
chain 2: DVVMTQTPLSLPVSLGDQASISCRSSQSLVHSNGNTYLRWYLQKPGQSPKVLIYKVSNRFSGVPDRFSGSGSGTDFTLKISRVEAEDLGVYFCSQSTHVPWTFGGGTKLEIK

The variants in the data set “fluorescein” derive from B1. Description: Kd (Tite-Seq). The settings on record: with fluorescein; format: scFv 4-4-20, heavy + light.
Variants of B1 are the subject of data set [1]. Put plainly: yeast surface expression (ratio to wild type); higher = more expressed. The settings on record: format: scFv 4-4-20, heavy + light.

One may read the Kd as the constant that tells how readily two partners part at equilibrium. On to chain 1 M34P, for which, in the data set with fluorescein, the Kd was at least 10 µM. Moreover, in data set [1], the yeast surface expression is 0.508.

In the case of chain 1 S101R W108L, in the data set with fluorescein, the Kd is at least 10 µM. Besides, in data set [1], the yeast surface expression came to 0.22.

As to chain 1 S101R W108H, in the data set with fluorescein, the dissociation constant Kd is at least 10 µM. In data set [1], the yeast surface expression is 0.261.

As to chain 1 F29Q, the Kd with fluorescein worked out at 0.0119 µM. Moreover, the yeast surface expression in data set [1] worked out at 0.989.

With chain 1 Y32T V37A, in the data set with fluorescein, the Kd is at least 10 µM. In addition, the yeast surface expression in data set [1] was determined as 0.65.

In the case of chain 1 M105Y D106H W108L, the Kd with fluorescein is at least 10 µM. The yeast surface expression in data set [1] is 0.362.

chain 1 Y32M W33E: the Kd with fluorescein was at least 10 µM. Also, the yeast surface expression in data set [1] turned out to be 1.18.

For the variant chain 1 M105Y G109S, the Kd with fluorescein came out at 0.0507 µM. In data set [1], the yeast surface expression turned out to be 0.936.

For chain 1 Y107R G109S, the Kd with fluorescein was found to be 2.47 µM. The yeast surface expression in data set [1] is 0.665.

Turning to chain 1 Y103T W108S, the Kd with fluorescein was at least 10 µM. In addition, the yeast surface expression in data set [1] was 0.244.

For the variant chain 1 S30R D31N W36A, the Kd with fluorescein was at least 10 µM. Also, the yeast surface expression in data set [1] was 0.32.

With chain 1 G104F W108R, the Kd with fluorescein was determined as 0.02 µM. Besides, the yeast surface expression in data set [1] stood at 0.146.

Regarding chain 1 G104F W108F, the Kd with fluorescein was at least 10 µM. In data set [1], the yeast surface expression was determined as 0.387.

For chain 1 M105N G109A, the Kd with fluorescein was at least 10 µM. Further, the yeast surface expression in data set [1] was 0.467.

As for chain 1 Y32P W33I, in the data set with fluorescein, the Kd was at least 10 µM. Also, the yeast surface expression in data set [1] stood at 0.908.

As to chain 1 S30T, in the data set with fluorescein, the Kd was 0.000743 µM. Further, the yeast surface expression in data set [1] was 1.07.

For chain 1 S30C, the Kd in the data set with fluorescein worked out at 0.00128 µM. Further, in data set [1], the yeast surface expression is 0.906.

Take chain 1 S30H: in the data set with fluorescein, the Kd turned out to be 0.00317 µM. Further, the yeast surface expression in data set [1] is 0.839.

As to chain 1 T28Y N35E, the Kd with fluorescein is at least 10 µM. Also, in data set [1], the yeast surface expression worked out at 0.319.

On to chain 1 F29R V37P, for which the Kd with fluorescein is at least 10 µM. Also, the yeast surface expression in data set [1] was 0.289.

Consider chain 1 F29R V37S, for which the Kd with fluorescein was at least 10 µM. For the same variant, the yeast surface expression in data set [1] stood at 0.385.

In the case of chain 1 Y103W M105L G109W, in the data set with fluorescein, the Kd is at least 10 µM. For the same variant, the yeast surface expression in data set [1] was 0.199.

Take chain 1 Y32Q W33V N35E: in the data set with fluorescein, the Kd turned out to be 7.72 µM. In data set [1], the yeast surface expression is 1.51.

As to chain 1 F29P W33G, the Kd with fluorescein was at least 10 µM. For the same variant, in data set [1], the yeast surface expression is 0.951.

On to chain 1 S30H Y32C, for which the Kd with fluorescein stood at 9.5 µM. Further, in data set [1], the yeast surface expression amounted to 0.722.

chain 1 F29Q S30D Y32A: the Kd with fluorescein was at least 10 µM. The yeast surface expression in data set [1] came to 0.934.

In the case of chain 1 T28W, the Kd with fluorescein turned out to be 0.0038 µM. For the same variant, the yeast surface expression in data set [1] came out at 0.893.

On to chain 1 T28G, for which the equilibrium dissociation constant (Kd) in the data set with fluorescein was 0.0189 µM. Further, the yeast surface expression in data set [1] is 0.994.

With chain 1 T28H S30N Y32M, the Kd with fluorescein was found to be 0.0692 µM. In addition, the yeast surface expression in data set [1] was 1.01.

For the variant chain 1 S101V Y103F D106V, the Kd with fluorescein is at least 10 µM. In addition, in data set [1], the yeast surface expression stood at 0.283.

For chain 1 Y107F G109N, in the data set with fluorescein, the Kd is at least 10 µM. Moreover, in data set [1], the yeast surface expression is 0.555.

Regarding chain 1 Y107F G109E, the Kd with fluorescein was at least 10 µM. Besides, the yeast surface expression in data set [1] came to 0.259.

As for chain 1 N35S V37E, the Kd with fluorescein was at least 10 µM. Further, the yeast surface expression in data set [1] came to 0.574.

As for chain 1 M34T V37C, the Kd with fluorescein was 0.02 µM. For the same variant, the yeast surface expression in data set [1] amounted to 0.697.

For chain 1 S30F Y32Q, the Kd with fluorescein was at least 10 µM. Besides, in data set [1], the yeast surface expression amounted to 0.653.

In the case of chain 1 T28R W36S, the Kd with fluorescein was at least 10 µM. For the same variant, the yeast surface expression in data set [1] is 0.272.

Regarding chain 1 T28A D31M, the Kd with fluorescein was 0.00239 µM. Also, the yeast surface expression in data set [1] was 0.955.

In the case of chain 1 S101P, the Kd with fluorescein is at least 10 µM. For the same variant, the yeast surface expression in data set [1] stood at 0.244.

Regarding chain 1 Y102V W108A, the Kd with fluorescein turned out to be 0.021 µM. In addition, the yeast surface expression in data set [1] stood at 0.315.

In the case of chain 1 G100F D106K, the Kd with fluorescein is at least 10 µM. The yeast surface expression in data set [1] stood at 0.653.

As to chain 1 D31I Y32A, the Kd with fluorescein came to 0.00444 µM. In addition, the yeast surface expression in data set [1] is 0.779.

Turning to chain 1 S101P Y102V W108C, the Kd with fluorescein was at least 10 µM. Also, the yeast surface expression in data set [1] turned out to be 0.1.

For the variant chain 1 Y103I G104M, in the data set with fluorescein, the Kd was at least 10 µM. Besides, in data set [1], the yeast surface expression worked out at 0.368.

On to chain 1 G100P, for which the Kd with fluorescein was at least 10 µM. Moreover, the yeast surface expression in data set [1] came out at 0.758.

For the variant chain 1 G100M, the Kd with fluorescein was at least 10 µM. Further, the yeast surface expression in data set [1] was 0.759.

chain 1 Y103H D106H: the Kd with fluorescein was at least 10 µM. Further, the yeast surface expression in data set [1] was 0.611.

Take chain 1 Y32T M34E: the Kd in the data set with fluorescein is at least 10 µM. Also, in data set [1], the yeast surface expression stood at 0.451.

chain 1 S30N W36C: the Kd in the data set with fluorescein is at least 10 µM. Besides, the yeast surface expression in data set [1] came out at 0.445.

On to chain 1 G104A D106K, for which the Kd in the data set with fluorescein was at least 10 µM. In addition, the yeast surface expression in data set [1] was found to be 0.362.

Regarding chain 1 T28P D31S, the Kd with fluorescein turned out to be 0.00115 µM. Moreover, in data set [1], the yeast surface expression is 1.07.

In the case of chain 1 S101C D106I G109A, in the data set with fluorescein, the Kd was at least 10 µM. Further, the yeast surface expression in data set [1] was 0.168.

On to chain 1 S101I G104K, for which the Kd with fluorescein is at least 10 µM. Further, the yeast surface expression in data set [1] is 0.482.

chain 1 S30H N35D: in the data set with fluorescein, the Kd was at least 10 µM. The yeast surface expression in data set [1] worked out at 0.828.

For the variant chain 1 G104S W108E, in the data set with fluorescein, the Kd was at least 10 µM. Further, the yeast surface expression in data set [1] is 0.198.

On to chain 1 F29A M34V, for which, in the data set with fluorescein, the dissociation constant (Kd) was at least 10 µM. In addition, the yeast surface expression in data set [1] was found to be 0.827.

Consider chain 1 F29A M34G, for which the Kd with fluorescein was at least 10 µM. Besides, the yeast surface expression in data set [1] was 0.656.

With chain 1 F29M W33M, the Kd with fluorescein is at least 10 µM. Further, in data set [1], the yeast surface expression came to 0.873.

For the variant chain 1 N35C V37L, the Kd with fluorescein is at least 10 µM. Further, in data set [1], the yeast surface expression was found to be 0.527.

The values above are taken from the FLAb antibody collection (doi:10.7554/elife.23156).
